Ten variants from FireProtDB (doi:10.1093/protein/9.5.425) can be followed below.

B1: Tryptophan synthase alpha chain, P0A877 (parent)
chain: MERYESLFAQLKERKEGAFVPFVTLGDPGIEQSLKIIDTLIEAGADALELGIPFSDPLADGPTIQNATLRAFAAGVTPAQCFEMLALIRQKHPTIPIGLLMYANLVFNKGIDEFYAQCEKVGVDSVLVADVPVEESAPFRQAALRHNVAPIFICPPNADDDLLRQIASYGRGYTYLLSRAGVTGAENRAALPLNHLVAKLKEYNAAPPLQGFGISAPDQVKAAIDAGAAGAISGSAIVKIIEQHINEPEKMLAALKVFVQPMKAATRS

The variants in the series derive from B1. Conditions: Escherichia coli (strain K12), pH 9, Thermal, DSC, Sodium tetraborate 1 mM, reversible: yes, structure 1WQ5, whole UniProt chain shown.

The term Tm denotes the temperature at the midpoint of the melting transition. Consider MERYESLFAQLKERKEGAFVPFVTLGDPGIEQSLKIIDTLIEAGADALELGIPFSDPLADGPTIQNATLRAFAAGVTPAQCFEMLALIRQKHPTIPIGLLMYANLVFNKGIDEFYAQCEKVGVDSVLVADVPVEESAPFRQAALRHNVAPIFISPPNADDDLLRQIASYGRGYTYLLSRAGVTGAENRAALPLNHLVAKLKEYNAAPPLQGFGISAPDQVKAAIDAGAAGAISGSAIVKIIEQHINEPEKMLAALKVFVQPMKAATRS [C154S], for which the Tm stood at 45.3 °C; the “change of melting temperature, mutant - wild type (higher = more stable)” value (from here on “change of melting temperature, mutant”) is -8.2 °C; the “heat capacity change of unfolding” value stood at 3.52 kcal/mol/K; the “unfolding enthalpy (calorimetric)” value was determined as 46.4 kcal/mol.

As for MERYESLFAQLKERKEGAFVPFVTLGDPGIEQSLKIIDTLIEAGADALELGIPFSDPLADGPTIQNATLRAFAAGVTPAQCFEMLALIRQKHPTIPIGLLMYANLVFNKGIDEFYAQCEKVGVDSVLVADVPVEESAPFRQAALRHNVAPIFIVPPNADDDLLRQIASYGRGYTYLLSRAGVTGAENRAALPLNHLVAKLKEYNAAPPLQGFGISAPDQVKAAIDAGAAGAISGSAIVKIIEQHINEPEKMLAALKVFVQPMKAATRS [C154V], the Tm is 50.2 °C; the “change of melting temperature, mutant” value was -3.3 °C; the “heat capacity change of unfolding” value stood at 4.21 kcal/mol/K; the “unfolding enthalpy (calorimetric)” value amounted to 71.5 kcal/mol. In addition, where the note is “50 °C”, the “ddG of mutation (higher = less stable)” value is 1.12 kcal/mol, the “heat capacity change of unfolding” value was 4.21 kcal/mol/K and the unfolding free energy came to 0.05 kcal/mol.

MERYESLFAQLKERKEGAFVPFVTLGDPGIEQSLKIIDTLIEAGADALELGIPFSDPLADGPTIQNATLRAFAAGVTPAQCFEMLALIRQKHPTIPIGLLMYANLVFNKGIDEFYAQCEKVGVDSVLVADVPVEESAPFRQAALRHNVAPIFIAPPNADDDLLRQIASYGRGYTYLLSRAGVTGAENRAALPLNHLVAKLKEYNAAPPLQGFGISAPDQVKAAIDAGAAGAISGSAIVKIIEQHINEPEKMLAALKVFVQPMKAATRS [C154A]: the Tm was 50.6 °C; the “change of melting temperature, mutant” value is -2.9 °C; the “heat capacity change of unfolding” value came to 4.11 kcal/mol/K; the “unfolding enthalpy (calorimetric)” value was determined as 73 kcal/mol. Moreover, under “50 °C”, the “ddG of mutation (higher = less stable)” value was found to be 1.03 kcal/mol, the “heat capacity change of unfolding” value came to 4.11 kcal/mol/K and the unfolding free energy amounted to 0.14 kcal/mol.

As to MERYESLFAQLKERKEGAFVPFVTLGDPGIEQSLKIIDTLIEAGADALELGIPFSDPLADGPTIQNATLRAFAAGVTPAQAFEMLALIRQKHPTIPIGLLMYANLVFNKGIDEFYAQCEKVGVDSVLVADVPVEESAPFRQAALRHNVAPIFICPPNADDDLLRQIASYGRGYTYLLSRAGVTGAENRAALPLNHLVAKLKEYNAAPPLQGFGISAPDQVKAAIDAGAAGAISGSAIVKIIEQHINEPEKMLAALKVFVQPMKAATRS [C81A], the Tm was determined as 51.8 °C; the “change of melting temperature, mutant” value was -1.7 °C; the “heat capacity change of unfolding” value worked out at 4.11 kcal/mol/K; the “unfolding enthalpy (calorimetric)” value amounted to 83.5 kcal/mol. For the same variant, where the note is “50 °C”, the “ddG of mutation (higher = less stable)” value came to 0.69 kcal/mol, the “heat capacity change of unfolding” value amounted to 4.11 kcal/mol/K and the unfolding free energy turned out to be 0.48 kcal/mol.

MERYESLFAQLKERKEGAFVPFVTLGDPGIEQSLKIIDTLIEAGADALELGIPFSDPLADGPTIQNATLRAFAAGVTPAQGFEMLALIRQKHPTIPIGLLMYANLVFNKGIDEFYAQCEKVGVDSVLVADVPVEESAPFRQAALRHNVAPIFICPPNADDDLLRQIASYGRGYTYLLSRAGVTGAENRAALPLNHLVAKLKEYNAAPPLQGFGISAPDQVKAAIDAGAAGAISGSAIVKIIEQHINEPEKMLAALKVFVQPMKAATRS [C81G]: the Tm came out at 48.7 °C; the “change of melting temperature, mutant” value was -4.8 °C; the “heat capacity change of unfolding” value amounted to 6.82 kcal/mol/K; the “unfolding enthalpy (calorimetric)” value was found to be 104 kcal/mol.

In the case of MERYESLFAQLKERKEGAFVPFVTLGDPGIEQSLKIIDTLIEAGADALELGIPFSDPLADGPTIQNATLRAFAAGVTPAQSFEMLALIRQKHPTIPIGLLMYANLVFNKGIDEFYAQCEKVGVDSVLVADVPVEESAPFRQAALRHNVAPIFICPPNADDDLLRQIASYGRGYTYLLSRAGVTGAENRAALPLNHLVAKLKEYNAAPPLQGFGISAPDQVKAAIDAGAAGAISGSAIVKIIEQHINEPEKMLAALKVFVQPMKAATRS [C81S], the Tm was determined as 49.1 °C; the “change of melting temperature, mutant” value was -4.4 °C; the “heat capacity change of unfolding” value was determined as 5.02 kcal/mol/K; the “unfolding enthalpy (calorimetric)” value came to 92.8 kcal/mol.

As to MERYESLFAQLKERKEGAFVPFVTLGDPGIEQSLKIIDTLIEAGADALELGIPFSDPLADGPTIQNATLRAFAAGVTPAQVFEMLALIRQKHPTIPIGLLMYANLVFNKGIDEFYAQCEKVGVDSVLVADVPVEESAPFRQAALRHNVAPIFICPPNADDDLLRQIASYGRGYTYLLSRAGVTGAENRAALPLNHLVAKLKEYNAAPPLQGFGISAPDQVKAAIDAGAAGAISGSAIVKIIEQHINEPEKMLAALKVFVQPMKAATRS [C81V], the Tm is 49.1 °C; the “change of melting temperature, mutant” value was -4.4 °C; the “heat capacity change of unfolding” value turned out to be 4.31 kcal/mol/K; the “unfolding enthalpy (calorimetric)” value was found to be 57.4 kcal/mol.

As to MERYESLFAQLKERKEGAFVPFVTLGDPGIEQSLKIIDTLIEAGADALELGIPFSDPLADGPTIQNATLRAFAAGVTPAQCFEMLALIRQKHPTIPIGLLMYANLVFNKGIDEFYAQSEKVGVDSVLVADVPVEESAPFRQAALRHNVAPIFICPPNADDDLLRQIASYGRGYTYLLSRAGVTGAENRAALPLNHLVAKLKEYNAAPPLQGFGISAPDQVKAAIDAGAAGAISGSAIVKIIEQHINEPEKMLAALKVFVQPMKAATRS [C118S], the Tm amounted to 45 °C; the “change of melting temperature, mutant” value is -8.5 °C; the “heat capacity change of unfolding” value stood at 2.3 kcal/mol/K; the “unfolding enthalpy (calorimetric)” value is 75.6 kcal/mol.

Regarding MERYESLFAQLKERKEGAFVPFVTLGDPGIEQSLKIIDTLIEAGADALELGIPFSDPLADGPTIQNATLRAFAAGVTPAQCFEMLALIRQKHPTIPIGLLMYANLVFNKGIDEFYAQAEKVGVDSVLVADVPVEESAPFRQAALRHNVAPIFICPPNADDDLLRQIASYGRGYTYLLSRAGVTGAENRAALPLNHLVAKLKEYNAAPPLQGFGISAPDQVKAAIDAGAAGAISGSAIVKIIEQHINEPEKMLAALKVFVQPMKAATRS [C118A], the Tm came out at 49.2 °C; the “change of melting temperature, mutant” value was -4.3 °C; the “heat capacity change of unfolding” value turned out to be 3.3 kcal/mol/K; the “unfolding enthalpy (calorimetric)” value amounted to 82.3 kcal/mol.

For the variant MERYESLFAQLKERKEGAFVPFVTLGDPGIEQSLKIIDTLIEAGADALELGIPFSDPLADGPTIQNATLRAFAAGVTPAQCFEMLALIRQKHPTIPIGLLMYANLVFNKGIDEFYAQVEKVGVDSVLVADVPVEESAPFRQAALRHNVAPIFICPPNADDDLLRQIASYGRGYTYLLSRAGVTGAENRAALPLNHLVAKLKEYNAAPPLQGFGISAPDQVKAAIDAGAAGAISGSAIVKIIEQHINEPEKMLAALKVFVQPMKAATRS [C118V], the Tm was determined as 49.3 °C; the “change of melting temperature, mutant” value is -4.2 °C; the “heat capacity change of unfolding” value was determined as 2.42 kcal/mol/K; the “unfolding enthalpy (calorimetric)” value stood at 73 kcal/mol.
